Positions count from the first letter of the chain named.
T1: hNGAL lipocalin mutein SEQ ID NO: 9
T1 construct: Mutein of mature hNGAL; Biotinylated with NHS-PEG4-Biotin for the SPR assay
T1 chain: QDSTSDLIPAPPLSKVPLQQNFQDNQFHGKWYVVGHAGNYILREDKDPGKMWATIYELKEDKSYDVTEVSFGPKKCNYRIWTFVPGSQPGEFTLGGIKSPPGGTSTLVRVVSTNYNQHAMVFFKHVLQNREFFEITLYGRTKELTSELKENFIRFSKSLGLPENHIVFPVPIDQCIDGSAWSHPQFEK

T2: hNGAL lipocalin mutein SEQ ID NO: 3
T2 construct: Mutein of mature hNGAL
T2 chain: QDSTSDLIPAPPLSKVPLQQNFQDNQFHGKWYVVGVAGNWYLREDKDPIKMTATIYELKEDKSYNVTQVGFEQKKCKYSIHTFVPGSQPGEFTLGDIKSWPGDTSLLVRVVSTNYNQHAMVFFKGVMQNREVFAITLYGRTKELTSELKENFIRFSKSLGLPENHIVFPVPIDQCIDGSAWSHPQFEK

T3: hNGAL lipocalin mutein SEQ ID NO: 1
T3 construct: Mutein of mature hNGAL
T3 chain: T1 chain with H36Q, D65N, E68G, R79T

T4: hNGAL lipocalin mutein SEQ ID NO: 8
T4 construct: Mutein of mature hNGAL; Biotinylated with NHS-PEG4-Biotin for the SPR assay
T4 chain: T1 chain with H36Q, P73A, P100D

T5: hNGAL lipocalin mutein SEQ ID NO: 11
T5 construct: Mutein of mature hNGAL; Biotinylated with NHS-PEG4-Biotin for the SPR assay
T5 chain: T1 chain with H36Q, G49V, P100L

T6: hNGAL lipocalin mutein SEQ ID NO: 7
T6 construct: Mutein of mature hNGAL; Biotinylated with NHS-PEG4-Biotin for the SPR assay
T6 chain: T1 chain with G49E, G103D

B1: human angiopoietin-2 (ligand, UniProt O15123 19-496, looked up)
chain: YNNFRKSMDSIGKKQYQVQHGSCSYTFLLPEMDNCRSSSSPYVSNAVQRDAPLEYDDSVQRLQVLENIMENNTQWLMKLENYIQDNMKKEMVEIQQNAVQNQTAVMIEIGTNLLNQTAEQTRKLTDVEAQVLNQTTRLELQLLEHSLSTNKLEKQILDQTSEINKLQDKNSFLEKKVLAMEDKHIIQLQSIKEEKDQLQVLVSKQNSIIEELEKKIVTATVNNSVLQKQQHDLMETVNNLLTMMSTSNSAKDPTVAKEEQISFRDCAEVFKSGHTTNGIYTLTFPNSTEEIKAYCDMEAGGGGWTIIQRREDGSVDFQRTWKEYKVGFGNPSGEYWLGNEFVSQLTNQQRYVLKIHLKDWEGNEAYSLYEHFYLSSEELNYRIHLKGLTGTAGKISSISQPGNDFSTKDGDNDKCICKCSQMLTGGWWFDACGPSNLNGMYYPQRQNTNKFNGIKWYYWKGSGYSLKATTMMIRPADF
notes: Bought recombinant protein with a His tag (detected by anti-HIS-tag antibody); also called human Ang-2; hAng-2
B2: human angiopoietin-1 (ligand, UniProt Q15389 20-498, looked up)
chain: SNQRRSPENSGRRYNRIQHGQCAYTFILPEHDGNCRESTTDQYNTNALQRDAPHVEPDFSSQKLQHLEHVMENYTQWLQKLENYIVENMKSEMAQIQQNAVQNHTATMLEIGTSLLSQTAEQTRKLTDVETQVLNQTSRLEIQLLENSLSTYKLEKQLLQQTNEILKIHEKNSLLEHKILEMEGKHKEELDTLKEEKENLQGLVTRQTYIIQELEKQLNRATTNNSVLQKQQLELMDTVHNLVNLCTKEGVLLKGGKREEEKPFRDCADVYQAGFNKSGIYTIYINNMPEPKKVFCNMDVNGGGWTVIQHREDGSLDFQRGWKEYKMGFGNPSGEYWLGNEFIFAITSQRQYMLRIELMDWEGNRAYSQYDRFHIGNEKQNYRLYLKGHTGTAGKQSSLILHGADFSTKDADNDNCMCKCALMLTGGWWFDACGPSNLNGMFYTAGQNHGKLNGIKWHYFKGPSYSLRSTTMMIRPLDF
notes: Bought recombinant protein; also called human Ang-1; hAng-1
B3: mouse angiopoietin-2 (ligand, UniProt O35608 19-496, looked up)
chain: YSNFRKSVDSTGRRQYQVQNGPCSYTFLLPETDSCRSSSSPYMSNAVQRDAPLDYDDSVQRLQVLENILENNTQWLMKLENYIQDNMKKEMVEIQQNVVQNQTAVMIEIGTSLLNQTAAQTRKLTDVEAQVLNQTTRLELQLLQHSISTNKLEKQILDQTSEINKLQNKNSFLEQKVLDMEGKHSEQLQSMKEQKDELQVLVSKQSSVIDELEKKLVTATVNNSLLQKQQHDLMETVNSLLTMMSSPNSKSSVAIRKEEQTTFRDCAEIFKSGLTTSGIYTLTFPNSTEEIKAYCDMDVGGGGWTVIQHREDGSVDFQRTWKEYKEGFGSPLGEYWLGNEFVSQLTGQHRYVLKIQLKDWEGNEAHSLYDHFYLAGEESNYRIHLTGLTGTAGKISSISQPGSDFSTKDSDNDKCICKCSQMLSGGWWFDACGPSNLNGQYYPQKQNTNKFNGIKWYYWKGSGYSLKATTMMIRPADF
notes: Bought recombinant protein; also called mouse Ang-2; mAng-2

Tests used:
[1] = target: T1, hNGAL lipocalin mutein SEQ ID NO: 9; experiment: solution competition ELISA; 0.1 nM SEQ ID NO: 9 with varied soluble ligand, free mutein captured on immobilised hAng-2
Procedure: (§1) In the following detailed experimental protocol, incubation and washing steps were performed as described above in the competition ELISA protocol (see Example 5).
(§2) The residual supernatants were discarded and 20 μl HRP-labeled anti-lipocalin-mutein antibody was added at a predetermined optimal concentration in PBS-T/BSA and incubated for 1 h at RT. […] After washing, 20 μl fluorogenic HRP substrate (Quantablue, Pierce) was added to each well, and the reaction was allowed to proceed for 60 minutes. The fluorescence intensity of every well on the plate was read using a Genios Plus Microplate reader (Tecan).

[2] = target: T2, hNGAL lipocalin mutein SEQ ID NO: 3; experiment: solution competition ELISA; 0.1 nM SEQ ID NO: 3 with varied soluble ligand, free mutein captured on immobilised hAng-2
Procedure: as §1, §2

[3] = target: T3, hNGAL lipocalin mutein SEQ ID NO: 1; experiment: solution competition ELISA; 0.1 nM SEQ ID NO: 1 with varied soluble ligand, free mutein captured on immobilised hAng-2
Procedure: as §1, §2

[4] = target: T4, hNGAL lipocalin mutein SEQ ID NO: 8; experiment: solution competition ELISA; 0.1 nM SEQ ID NO: 8 with varied soluble ligand, free mutein captured on immobilised hAng-2
Procedure: as §1, §2

[5] = target: T5, hNGAL lipocalin mutein SEQ ID NO: 11; experiment: solution competition ELISA; 0.1 nM SEQ ID NO: 11 with varied soluble ligand, free mutein captured on immobilised hAng-2
Procedure: as §1, §2

[6] = target: benchmark antibody 1 (SEQ ID NOs: 17/18); experiment: solution competition ELISA; 0.1 nM SEQ ID NO: 17/18 with varied soluble ligand, free antibody captured on immobilised hAng-2
[7] = target: T6, hNGAL lipocalin mutein SEQ ID NO: 7; experiment: solution competition ELISA; 0.1 nM SEQ ID NO: 7 with varied soluble ligand, free mutein captured on immobilised hAng-2
Procedure: as §1, §2

| Binder | IC50 [1] [nM] | IC50 [2] [nM] | IC50 [3] [nM] | IC50 [4] [nM] | IC50 [5] [nM] | IC50 [6] [nM] | IC50 [7] [nM] |
| --- | --- | --- | --- | --- | --- | --- | --- |
| B1 | 0.76 | 1.4 | 2.5 | 0.5 | 0.49 | 0.6 | 0.41 |
| B2 | 1.9 |  |  | 9.3 | 0.89 | 26 | 0.47 |
| B3 | 0.11 | 1.8 | 0.65 | 0.08 | 0.05 | 0.07 | 0.05 |
